Results from patent publication US10385103B2, “Cell-permeable (ICP)-SOCS3 recombinant protein and uses thereof” (CELLIVERY THERAPEUTICS, INC., priority 2014, dated 2019).
Entries after “also recorded” stand apart in the source; their conditions may differ.

Legend:
[1] = Tissue-permeability / systemic delivery of FITC-labeled SOCS3 proteins after intraperitoneal injection; format: in vivo, ICR mice
Experimental: To further investigate in vivo delivery of SOCS3 recombinant proteins, ICR mice (Doo-Yeol Biotech Co. Ltd., Seoul, Korea) were intraperitoneal (IP) injected with 600 μg/head of 10 μM FITC (Fluorescein isothiocyanate, SIGMA, USA)-labeled SOCS3 proteins and sacrificed after 2 hrs. From the mice, the liver, kidney, spleen, lung, heart, and brain were removed and washed with PBS, and then placed on a dry ice, and embedded with an O.C.T. compound (Sakura). After cryosectioning at 20 μm, tissue distributions of fluorescence-labeled-SOCS3 proteins in different organs was analyzed by fluorescence microscopy (Carl Zeiss, Gottingen, Germany)(FIG. 22).
The liver tissue permeability was analyzed by the method described in Example 7-2.

[2] = tested on: AGS cells; assay: Wound cell migration inhibition in gastric carcinoma cells; format: cell-based; conditions: 10 μM 2 hrs, additional 24 hrs
Experimental: AGS cells (gastric cancer cell line) were seeded in a 12 well plate at a density of 2.5×10^5 per well, grown to 90% confluence. Confluent AGS cells were incubated with 10 μM HM#S3B in serum-free medium for 2 hrs prior to changing the growth medium (DMEM/F12, Hyclone, Logan, Utah, USA) and washed twice with PBS, and the monolayer at the center of the well was “wounded” by scraping with a sterilized white pipette tip. Cells were cultured for an additional 24 hrs and cell migration was observed by phase contrast microscopy (Nikon, ECLIPSE Ts2). The migration was quantified by counting the number of cells that migrated from the wound edge into the clear area.

[3] = tested on: RAW 264.7 cells; assay: Cell-to-cell protein transfer (flow cytometry); format: cell-based
Experimental: For this, RAW 264.7 cells were treated with 5 μM of FITC-labeled HM165S3B, HTS3B for 2 hour and washed with PBS two times. Thereafter, they were seeded on PANC-1 cell, incubated for 2 hours and treated with 20 ng/ml of IFN-γ for 15 minutes, followed by Western blotting in the same manner as in Example 8-1. And Cell-to-cell protein transfer was assessed by flow cytometry.
For this, RAW 264.7 cells were treated with 10 uM of FITC-labeled iCP-SOCS3 (HM165S3B) protein for 1 hour. Thereafter, these cells were co-cultured with PerCP-Cy5.5-CD 14-stained RAW 264.7 cells for 2 hours. Cell-to-cell protein transfer was assessed by flow cytometry, scoring for CD14/FITC double-positive cells.

[4] = tested on: HepG2 cells; assay: Cell-permeability of FITC-labeled SOCS3 recombinant proteins in hepatocellular carcinoma cells (flow cytometry); format: cell-based, human; conditions: 10 μM FITC-labeled protein, 1 hr, 37° C.
Experimental: HepG2 cells (ATCC, Manassas, Va., USA) were seeded in a 12 well plate, grown to 90% confluence. Cells were treated with 10 μM FITC-labeled iCP-SOCS3 recombinant proteins and cultivated for 1 hr at 37° C.
After cultivation, the cells were treated with proteinase K (10 ug/mL, SIGMA, USA) and washed three times with ice-cold PBS (Phosphate-buffered saline, Hyclone, USA) to remove surface-bound proteins, and internalized proteins were measured by flow cytometry (FlowJo cytometric analysis software, Guava, Millipore, Darmstadt, Germany). Untreated cells (gray) and equimolar concentration of unconjugated FITC (FITC only, green)-treated cells were served as control (FIG. 57).

[5] = tested on: HepG2 cells; assay: Induction of apoptosis, Annexin V/7-AAD staining; format: cell-based, human; conditions: for induction of apoptosis (Annexin V), HepG2, dose dependence: example 20-1
Experimental: (§1) AGS cells (gastric carcinoma cell line) (American Type Culture Collection; ATCC) were seeded in a 12-well plate at a density of 1×10^5 cells/well, and then treated with 10 uM of aMTD/SD-fused SOCS3 for 14 hours. Cancer cell death was analyzed by Annexin V analysis. Annexin V/7-Aminoactinomycin D (7-AAD) staining was performed using flow cytometry according to the manufacturer's guidelines (BD Pharmingen, San Diego, Calif., USA). Briefly, cells were washed three times with ice-cold PBS. The cells were then resuspended in 100 μl of binding buffer and incubated with 1 μl of 7-AAD and 1 μl of annexin V-PE for 30 min in the dark at 37° C. Flow cytometric analysis was immediately performed using a guava easyCyte™ 8 Instrument (Merck Millipore, Darmstadt, Germany).
Annexin V/7-Aminoactinomycin D (7-AAD) staining was performed using flow cytometry according to the manufacturer's guidelines (BD Pharmingen, San Diego, Calif., USA). Briefly, 1×10^6 cells were washed three times with ice-cold PBS. The cells were then resuspended in 100 μl of binding buffer and incubated with 1 μl of 7-AAD and 1 μl of […] for 30 min in the dark at 4° C. Flow cytometric analysis was immediately performed using a guava easyCyte™ 8 Instrument (Merck Millipore, Darmstadt, Germany). In this regard, Cisplatin® (IC50: 30 μM) was used as a reference drug.
(§2) The effect of inducing apoptosis of Chang liver cells was measured in the same manner as in Example 11-2, except that as target cell lines, normal Chang liver cells and hepatocellular carcinoma cell lines, Hep3B, HepG2, Huh7, and SK-HEP-1 were used, and as a reference drug, 5-FU® (IC50: 40 μM) was used.

[6] = tested on: Hep3B cells; assay: Induction of apoptosis, Annexin V/7-AAD staining; format: cell-based, human; conditions: example 20-2
Experimental: as §1, §2

[7] = tested on: Huh7 cells; assay: Induction of apoptosis, Annexin V/7-AAD staining; format: cell-based, human; conditions: example 20-2
Experimental: as §1, §2

[8] = tested on: SK-Hep-1 cells; assay: Induction of apoptosis, Annexin V/7-AAD staining; format: cell-based, human; conditions: example 20-2
Experimental: as §1, §2

[9] = tested on: normal Chang liver cells; assay: Induction of apoptosis, Annexin V/7-AAD staining; format: cell-based, human; conditions: example 20-2
Experimental: as §1, §2

[10] = tested on: HCCs (Hep3B, HepG2, Huh7 and SK-HEP-1); assay: Inhibition of cell cycle progression (PI staining, flow cytometry); format: cell-based, human; conditions: 10 uM, 8 hrs
Experimental: To further determine the effect of iCP-SOCS3 on the tumorigenicity of hepatocellular carcinoma cells, we subsequently investigated whether iCP-SOCS3 regulates cell cycle progression in HCCs (Hep3B, HepG2, Huh7 and SK-HEP-1).
HCCs and normal cells were treated with 10 uM protein (Non-CP-SOCS3 (HS3B) and iCP-SOSC3 (HM165S3B)) for 8 hrs. After the treatment, cells were washed twice with cold PBS and re-suspended in 1 ml cold PBS, fixed in cold 70% ethanol, washed with cold PBS twice and re-suspended in PI master mix (PI 10 ug/ml (SIGMA, USA), 50 ug/ml RNase A (Invitrogen, USA) in staining buffer) at a final cell density of 2×10^5 cell/ml. The cell mixtures were incubated 30 min in the dark at 4° C. Flow cytometric analysis was immediately performed using a guava easyCyte™ 8 Instrument (Merck Millipore, Darmstadt, Germany).

B1: HM165S3B: His-tagged recombinant protein of aMTD165, human SOCS3 and solubilization domain B; prototype improved cell-permeable SOCS3 (protein)
chain: MGSSHHHHHHSSGLVPRGSHMALAVPVALAIVPVTHSKFPAAGMETSRPLDTSLRLKTFSSKSEYQLVVNAVRKLQESGFYWSAVTGGEANLLLSAEPAGTFLIRDSSDQRHFFTLSVKTQSGTKNLRIQCEGGSFSLQSDPRSTQPVPRFDCVLKLVHHYMETPPPGAPSFPSPPTEPSSEVPEQPSAQPLPGSPPRRAYYIYSGGEKIPLVLSRPLSSNVATLQHLCRKTVNGHLDSYEKVTQLPGPIREFLDQYDAPLGSMAEQSDKDVKYYTLEEIQKHKDSKSTWVILHHKVYDLTKFLEEHPGGEEVLGEQAGGDATENFEDVGHSTDARELSKTYIIGELHPDDRSKIAKPSETL
modifications: Amino acid sequence of HM165S3B
tissue distribution / systemic delivery ([1]; IP 600 μg/head FITC-labeled protein, sacrificed after 2 hrs, liver, kidney, spleen, lung, heart, brain): distributed to a variety of tissues (liver, kidney, spleen, lung, heart and, to a lesser extent, brain); also recorded: showed the highest systemic delivery of SOCS3 protein to the tissues; also recorded: exhibited superior cell-permeability | systemic delivery to liver ([1]; intraperitoneal injection): enhanced the systemic delivery to liver | inhibition of cell migration (wound) [2]: inhibiting migration of gastric carcinoma cells | inhibition of cell migration (wound) ([2]; listed as aMTD165-fused SOCS3 recombinant protein): showed the most effective inhibition of cancer cell migration | cell-to-cell protein transfer (CD14/FITC double-positive cells) ([3]; 10 uM FITC-labeled protein 1 hour, co-culture with CD14-stained RAW 264.7 cells 2 hours): Efficient cell-to-cell transfer | cell-to-cell protein transfer ([3]; RAW 264.7 treated with 5 μM FITC-labeled protein 2 hour, seeded on PANC-1 cell 2 hours): efficient cell-to-cell transfer | transduction into HepG2 cells [4]: promoted the transduction into cultured HCC HepG2 cells | induction of apoptosis (Annexin V), HepG2, dose dependence [5]: dose-dependently efficient inducer of apoptosis | induction of apoptosis (Annexin V), HepG2, dose dependence ([5]; listed as iCP-SOCS3): upon treatment of 10 uM or more of iCP-SOCS3, there was no difference in induction of apoptosis | induction of apoptosis (Annexin V), HepG2 ([5]; example 20-2): considerably efficient inducer of apoptosis | induction of apoptosis (Annexin V), Hep3B [6]: considerably efficient inducer of apoptosis | induction of apoptosis (Annexin V), Huh7 [7]: considerably efficient inducer of apoptosis | induction of apoptosis (Annexin V), SK-HEP-1 [8]: considerably efficient inducer of apoptosis | induction of apoptosis (Annexin V), normal Chang liver cells [9]: dose not induced apoptosis in normal cells | cell cycle progression in HCCs [10]: efficiently inhibited cell cycle progression
